Source: paper PMC5397160, “Insights into the RecQ helicase mechanism revealed by the structure of the helicase domain of human RECQL5”

Legend:
RECQL5 11-526 R349A = RECQL5 11-526 R349A (human, UniProt O94762 11-526, R349A); assay: fluorescence polarization; value marked * in table; FP: 10 mM HEPES pH 7.5, 150 mM NaCl, 25 C, 10 nM FITC probe; no nucleotide or Mg stated; conditions: protein: recombinant; tags: none (His tag cleaved with TEV); label: 5' fluorescein (FITC) on RQ-1; fork 1:2, 31 bp, RQ-1 5' arm 32 nt, RQ-3 3' arm 30 nt
RECQL5 11-526 F420A = RECQL5 11-526 F420A (human, UniProt O94762 11-526, F420A); assay: fluorescence polarization; FP: 10 mM HEPES pH 7.5, 150 mM NaCl, 25 C, 10 nM FITC probe; no nucleotide or Mg stated; conditions: protein: recombinant; tags: none (His tag cleaved with TEV); label: 5' fluorescein (FITC) on RQ-1; fork 1:2, 31 bp, RQ-1 5' arm 32 nt, RQ-3 3' arm 30 nt
RECQL5 11-526 Q345A = RECQL5 11-526 Q345A (human, UniProt O94762 11-526, Q345A); assay: as above; conditions: protein: recombinant; tags: none (His tag cleaved with TEV); label: 5' fluorescein (FITC) on RQ-1; fork 1:2, 31 bp, RQ-1 5' arm 32 nt, RQ-3 3' arm 30 nt
RECQL5 11-526 R352G = RECQL5 11-526 R352G (human, UniProt O94762 11-526, R352G); assay: as above; conditions: protein: recombinant; tags: none (His tag cleaved with TEV); label: 5' fluorescein (FITC) on RQ-1; fork 1:2, 31 bp, RQ-1 5' arm 32 nt, RQ-3 3' arm 30 nt
RECQL5 11-453 = RECQL5 11-453 (human, UniProt O94762 11-453); assay: as above; conditions: protein: recombinant; tags: none (His tag cleaved with TEV); label: 5' fluorescein (FITC) on RQ-1; fork 1:2, 31 bp, RQ-1 5' arm 32 nt, RQ-3 3' arm 30 nt
RECQL5 11-526 W165A = RECQL5 11-526 W165A (human, UniProt O94762 11-526, W165A); assay: as above; conditions: protein: recombinant; tags: none (His tag cleaved with TEV); label: 5' fluorescein (FITC) on RQ-1; fork 1:2, 31 bp, RQ-1 5' arm 32 nt, RQ-3 3' arm 30 nt
RECQL5 11-526 Y419A = RECQL5 11-526 Y419A (human, UniProt O94762 11-526, Y419A); assay: as above; conditions: protein: recombinant; tags: none (His tag cleaved with TEV); label: 5' fluorescein (FITC) on RQ-1; fork 1:2, 31 bp, RQ-1 5' arm 32 nt, RQ-3 3' arm 30 nt
RECQL5 11-526 = RECQL5 11-526 (human, UniProt O94762 11-526); assay: as above; conditions: protein: recombinant; tags: none (His tag cleaved with TEV); label: 5' fluorescein (FITC) on RQ-1; fork 1:2, 31 bp, RQ-1 5' arm 32 nt, RQ-3 3' arm 30 nt
RECQL5 11-609 = RECQL5 11-609 (human, UniProt O94762 11-609); assay: as above; conditions: protein: recombinant, tags: none (His tag cleaved with TEV)
RECQL5 11-526 H167A = RECQL5 11-526 H167A (human, UniProt O94762 11-526, H167A); assay: as above; conditions: protein: recombinant; tags: none (His tag cleaved with TEV); label: 5' fluorescein (FITC) on RQ-1; fork 1:2, 31 bp, RQ-1 5' arm 32 nt, RQ-3 3' arm 30 nt
RECQL5 11-526 D168A = RECQL5 11-526 D168A (human, UniProt O94762 11-526, D168A); assay: as above; conditions: protein: recombinant; tags: none (His tag cleaved with TEV); label: 5' fluorescein (FITC) on RQ-1; fork 1:2, 31 bp, RQ-1 5' arm 32 nt, RQ-3 3' arm 30 nt
RECQL5 11-526 D422A = RECQL5 11-526 D422A (human, UniProt O94762 11-526, D422A); assay: as above; conditions: protein: recombinant; tags: none (His tag cleaved with TEV); label: 5' fluorescein (FITC) on RQ-1; fork 1:2, 31 bp, RQ-1 5' arm 32 nt, RQ-3 3' arm 30 nt
RECQL5 11-438 = RECQL5 11-438 (human, UniProt O94762 11-438); assay: fluorescence polarization; shared Bmax fit; FP: 10 mM HEPES pH 7.5, 150 mM NaCl, 25 C, 10 nM FITC probe; no nucleotide or Mg stated; conditions: protein: recombinant; tags: none (His tag cleaved with TEV); label: 5' fluorescein (FITC) on RQ-1; fork 1:2, 31 bp, RQ-1 5' arm 32 nt, RQ-3 3' arm 30 nt
RECQL5 11-438, sequence (O94762 11-438): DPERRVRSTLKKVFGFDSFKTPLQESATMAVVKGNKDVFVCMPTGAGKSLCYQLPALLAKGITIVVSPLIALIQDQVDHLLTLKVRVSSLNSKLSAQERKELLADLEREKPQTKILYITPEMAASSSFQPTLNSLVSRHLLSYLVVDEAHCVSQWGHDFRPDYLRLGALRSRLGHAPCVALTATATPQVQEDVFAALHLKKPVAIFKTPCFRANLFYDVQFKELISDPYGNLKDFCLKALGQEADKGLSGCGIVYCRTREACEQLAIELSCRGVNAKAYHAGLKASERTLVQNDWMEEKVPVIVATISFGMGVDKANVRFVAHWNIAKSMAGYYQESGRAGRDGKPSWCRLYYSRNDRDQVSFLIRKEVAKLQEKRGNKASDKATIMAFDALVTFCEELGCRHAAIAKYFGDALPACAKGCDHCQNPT

RECQL5 11-609, sequence (O94762 11-609): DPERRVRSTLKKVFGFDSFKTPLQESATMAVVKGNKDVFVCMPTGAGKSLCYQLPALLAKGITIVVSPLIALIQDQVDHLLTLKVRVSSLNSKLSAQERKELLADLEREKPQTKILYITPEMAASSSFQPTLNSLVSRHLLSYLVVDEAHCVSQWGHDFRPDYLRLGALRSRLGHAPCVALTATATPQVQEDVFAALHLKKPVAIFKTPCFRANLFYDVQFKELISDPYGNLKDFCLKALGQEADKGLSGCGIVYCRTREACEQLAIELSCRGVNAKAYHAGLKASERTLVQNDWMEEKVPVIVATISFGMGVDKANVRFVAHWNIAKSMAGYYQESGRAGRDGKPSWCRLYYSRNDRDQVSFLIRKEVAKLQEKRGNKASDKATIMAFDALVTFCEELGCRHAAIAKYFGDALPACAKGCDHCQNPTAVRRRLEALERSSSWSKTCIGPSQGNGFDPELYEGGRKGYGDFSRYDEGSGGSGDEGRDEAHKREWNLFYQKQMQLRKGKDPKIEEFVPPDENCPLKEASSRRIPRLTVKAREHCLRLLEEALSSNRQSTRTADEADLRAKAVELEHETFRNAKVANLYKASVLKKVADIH
RECQL5 11-526, sequence (O94762 11-526): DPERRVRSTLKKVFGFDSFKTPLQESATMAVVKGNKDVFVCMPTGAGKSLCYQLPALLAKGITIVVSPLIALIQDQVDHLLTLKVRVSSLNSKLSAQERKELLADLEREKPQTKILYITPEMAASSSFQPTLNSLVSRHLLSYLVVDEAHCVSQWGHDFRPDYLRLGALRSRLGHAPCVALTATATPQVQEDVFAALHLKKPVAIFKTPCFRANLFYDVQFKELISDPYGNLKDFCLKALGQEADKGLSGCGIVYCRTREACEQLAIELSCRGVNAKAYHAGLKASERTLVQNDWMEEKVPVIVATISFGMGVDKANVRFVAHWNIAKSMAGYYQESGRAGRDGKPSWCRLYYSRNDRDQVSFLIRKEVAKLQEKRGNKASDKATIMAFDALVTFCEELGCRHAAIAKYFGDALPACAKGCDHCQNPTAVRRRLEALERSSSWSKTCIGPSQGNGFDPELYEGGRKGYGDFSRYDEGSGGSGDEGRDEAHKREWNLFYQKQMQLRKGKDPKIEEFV
RECQL5 11-526 D168A, sequence (O94762 11-526 D168A): as the sequence (O94762 11-526) above, with D158A counted along it
RECQL5 11-526 W165A, sequence (O94762 11-526 W165A): as the sequence (O94762 11-526) above, with W155A counted along it
RECQL5 11-526 Y419A, sequence (O94762 11-526 Y419A): as the sequence (O94762 11-526) above, with Y409A counted along it
RECQL5 11-453, sequence (O94762 11-453): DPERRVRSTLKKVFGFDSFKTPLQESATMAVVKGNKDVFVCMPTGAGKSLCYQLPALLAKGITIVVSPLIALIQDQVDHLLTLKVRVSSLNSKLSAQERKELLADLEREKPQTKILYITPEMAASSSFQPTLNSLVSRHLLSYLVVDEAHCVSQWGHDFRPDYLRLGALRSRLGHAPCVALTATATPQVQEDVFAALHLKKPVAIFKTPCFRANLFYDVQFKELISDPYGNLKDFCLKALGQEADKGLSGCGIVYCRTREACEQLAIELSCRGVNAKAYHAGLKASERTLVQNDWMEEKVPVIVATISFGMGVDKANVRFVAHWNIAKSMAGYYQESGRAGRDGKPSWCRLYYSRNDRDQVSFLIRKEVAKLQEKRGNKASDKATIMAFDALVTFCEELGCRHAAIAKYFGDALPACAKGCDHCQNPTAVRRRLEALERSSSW
RECQL5 11-526 Q345A, sequence (O94762 11-526 Q345A): as the sequence (O94762 11-526) above, with Q335A counted along it
RECQL5 11-526 R352G, sequence (O94762 11-526 R352G): as the sequence (O94762 11-526) above, with R342G counted along it
RECQL5 11-526 R349A, sequence (O94762 11-526 R349A): as the sequence (O94762 11-526) above, with R339A counted along it
RECQL5 11-526 D422A, sequence (O94762 11-526 D422A): as the sequence (O94762 11-526) above, with D412A counted along it
RECQL5 11-526 H167A, sequence (O94762 11-526 H167A): as the sequence (O94762 11-526) above, with H157A counted along it
RECQL5 11-526 F420A, sequence (O94762 11-526 F420A): as the sequence (O94762 11-526) above, with F410A counted along it

B1: splayed duplex (RQ-1 + RQ-3) (mixed)
DNA 1: ATCGATAGTCGGATCCTCTAGACAGCTCCATGTAGCAAGGCACTGGTAGAATTCGGCAGCGTC
DNA 2: GACGCTGCCGAATTCTACCAGTGCCTTGCTAGGACATCTTTGCCCACCTGCAGGTTCACCC
For B1, which Kd (RECQL5 11-526 R349A) is on record?
The Kd was 0.295 ± 0.029 µM.

What about the Kd (RECQL5 11-526 F420A) of the same binder?
The Kd was 0.045 ± 0.003 µM.

And the Kd (RECQL5 11-526 Q345A)?
The Kd was 0.085 ± 0.004 µM.

What about the Kd (RECQL5 11-526 R352G) of the same binder?
Its Kd is 0.029 ± 0.002 µM.

And the Kd (RECQL5 11-453)?
The Kd was 0.049 ± 0.028 µM.

What about the Kd (RECQL5 11-526 W165A) of the same binder?
Its Kd is 0.169 ± 0.006 µM.

What about the Kd (RECQL5 11-526 Y419A) of the same binder?
Its Kd is 0.039 ± 0.01 µM.

And the Kd (RECQL5 11-526)?
Its Kd is 0.051 ± 0.005 µM.

And the Kd (RECQL5 11-609; label: 5' fluorescein (FITC) on RQ-1, fork 1:2, 31 bp, RQ-1 5' arm 32 nt, RQ-3 3' arm 30 nt)?
The Kd was 0.029 ± 0.004 µM.

What about the Kd (RECQL5 11-526 H167A) of the same binder?
Its Kd is 0.108 ± 0.005 µM.

And the Kd (RECQL5 11-526 D168A)?
The Kd was 0.025 ± 0.002 µM.

And the Kd (RECQL5 11-526 D422A)?
Its Kd is 0.038 ± 0.004 µM.

And the Kd (RECQL5 11-438)?
Its Kd is 0.164 ± 0.034 µM.

B2: double stranded (RQ-1 + RQ-2) (dsDNA)
DNA 1: B1 DNA 1
DNA 2: GACGCTGCCGAATTCTACCAGTGCCTTGCTACATGGAGCTGTCTAGAGGATCCGACTATCGAT
Does B2 bind (RECQL5 11-609; label: 5' fluorescein (FITC) on RQ-1, blunt)?
Result: binds

B3: single stranded (RQ-1) (ssDNA)
DNA: B1 DNA 1
Does B3 bind (RECQL5 11-609; label: 5' fluorescein (FITC), single strand)?
Result: binds
